Experimental data published in PMC12344292, “Structural basis for membrane microdomain formation by a human Stomatin complex” (Nature Communications, 2025).

Target: the molecule itself
Experiment: cryo-EM structure; single-particle analysis of native membrane vesicles holding ALFA-tagged Stomatin, isolated on ALFA Selector CE resin and eluted with 0.2 mM ALFA peptide; 20 mM K-HEPES pH 7.4, 300 mM KCl, 5 mM DTT; C16 then local C8 symmetry

B1: human Stomatin (natural protein, UniProt P27105-1 1-288, looked up)
chain: MAEKRHTRDSEAQRLPDSFKDSPSKGLGPCGWILVAFSFLFTVITFPISIWMCIKIIKEYERAIIFRLGRILQGGAKGPGLFFILPCTDSFIKVDMRTISFDIPPQEILTKDSVTISVDGVVYYRVQNATLAVANITNADSATRLLAQTTLRNVLGTKNLSQILSDREEIAHNMQSTLDDATDAWGIKVERVEIKDVKLPVQLQRAMAAEAEASREARAKVIAAEGEMNASRALKEASMVITESPAALQLRYLQTLTTIAAEKNSTIVFPLPIDMLQGIIGAKHSHLG
notes: Stomatin, human, UniProt P27105-1; full-length protein in its membrane environment; The final atomic model includes residues 14-18 and 29-278; The 16 identical chains adopt two alternating conformations (Conformer A and B); also called N-terminal ALFA-tagged human Stomatin; Stomatin complex; source: HEK293S GnTI- cells infected with BacMam baculovirus (pEG BacMam); isolated in native membrane …
stoichiometry N: 16
